Experiments:
[1] = molecular target: RNAPII-CTD; assay: confocal fluorescence microscopy, AR AD partitioning into preassembled droplets; conditions: 5 µM RNAPII-CTD, 50 mM NaCl, 10% ficoll, 1 µM AR AD; parent: est. 70; read off a plot
[2] = molecular target: MED1-IDR; assay: as above; conditions: 15 µM MED1-IDR, 20 mM NaCl, 10% ficoll, 1 µM AR AD; parent: est. 97; read off a plot

response [1]: 25 arb.u.
response [2]: 80 arb.u.
Substance: AR AD WT* 22YtoS
